From patent publication CN116981688A (HELMHOLTZ ZENTRUM MUENCHEN DEUTSCHES FORSCHUNGSZENTRUM FUR …, dated 2023)

T1: 人PRDX4 (存在于癌细胞的细胞表面上) (human) (UniProt Q13162)
T1 sequence: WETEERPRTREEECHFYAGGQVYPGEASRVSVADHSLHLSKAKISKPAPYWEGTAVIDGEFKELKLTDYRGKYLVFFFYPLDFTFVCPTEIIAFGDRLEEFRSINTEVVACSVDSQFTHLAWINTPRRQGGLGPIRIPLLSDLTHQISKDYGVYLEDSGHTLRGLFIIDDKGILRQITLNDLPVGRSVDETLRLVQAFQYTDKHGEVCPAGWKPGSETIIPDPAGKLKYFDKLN

T2: PRDX4 (内源性, 细胞裂解物中) (human, UniProt Q13162 38-271)
T2 construct: Endogenous PRDX4 in RIPA lysates of human cell lines (ES-2 and others), precipitated with 11F2 beads; also called 内源性PRDX4
T2 sequence: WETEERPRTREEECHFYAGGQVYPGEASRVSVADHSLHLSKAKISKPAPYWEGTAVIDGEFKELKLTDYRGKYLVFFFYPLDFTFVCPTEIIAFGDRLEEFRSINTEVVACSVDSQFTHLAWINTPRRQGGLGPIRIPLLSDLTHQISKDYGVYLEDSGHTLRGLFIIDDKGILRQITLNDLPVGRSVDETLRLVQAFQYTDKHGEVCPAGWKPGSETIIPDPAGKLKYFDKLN


Columns and labels:
[1] = target: T1, 人PRDX4 (存在于癌细胞的细胞表面上) (human); experiment: flow cytometry on ES-2 cells, isotype control
[2] = target: T1, 人PRDX4 (存在于癌细胞的细胞表面上) (human); experiment: flow cytometry on ES-2w cells transfected with control siRNA
PRDX4 (内源性, 细胞裂解物中) = target: T2, PRDX4 (内源性, 细胞裂解物中); experiment: immunoprecipitation with 11F2 beads from ES-2 lysate, western blot
[3] = target: T1, 人PRDX4 (存在于癌细胞的细胞表面上) (human); experiment: flow cytometry on ES-2 cells transfected with PRDX4-specific siRNA (population 4BC_KO)
[4] = target: T1, 人PRDX4 (存在于癌细胞的细胞表面上) (human); experiment: flow cytometry on ES-2 cells with PRDX4-specific siRNA (4BC_KO) against control siRNA cells

平均值 (mean fluorescence) [1]	平均值 (mean fluorescence) [2]	binding result (PRDX4 (内源性, 细胞裂解物中))	平均值 (mean fluorescence) [3]	percent of 11F2 binding against control siRNA cells [4]	Molecule
159	–	–	–	–	同种型抗体 (antibody)
–	1910	binds	874	50%	抗体11F2 (antibody, V domains shown, Monoclonal antibody detected with goat anti-rat IgG secondary antibody, so rat constant regions; also called PRDX4特异性抗体11F2; PRDX4抗体11F2) VH: QVQLQQSGAELVKPGTSVKLSCKASGYTFSTHHMHWIKETTGQGLEWIGIINPGNGGTKYNVKFKGKATLTVDSSSSTAFMQLGSLTPEDSAVYYCARGNPASFDYWGQGVMVTVSS VL: DIQMTQSPSFLSASVGDRVTINCKASQNIYKYLNWYQQKLGEAPKRLIYNTNNLETDIPSRFSGSGSGTDYTFTISSLQPEDFATYFCLQHSNFPFTFGSGTKLEIKR
